The results in this text go back to article PMC9697344.

In this assay the target is human epidermal growth factor receptor expressed on M3-EGFR cells (human) (UniProt P00533).

Regarding “DTox-HMP-NLS-EGF modular nanotransporter”, the average fluorescence of M3-EGFR cell nuclei (anti-His-Tag Alexa Fluor 647) after 2 h incubation with 300 nM MNT (Relative units (RU)) stood at 44.3.
The figure for “EGF-DTox-HMP-NLS-[Nrf2-peptide] modular nanotransporter” is 44.7.
